Article PMC3446985

Target: human GRP78 (human) (UniProt P11021)
Experiment: AUC; sedimentation velocity, GRP78 alone at 0.4, 0.6 and 1.2 mg/mL, 28,000 rpm, 20°C, 20 mM sodium phosphate pH 7.0, 100 mM NaCl, 55 mM arginine, c(S) analysis; monomer to dimer

Chain of human GRP78, P11021 19-654 (natural protein; other documents disagree on this pair) (P11021 19-654): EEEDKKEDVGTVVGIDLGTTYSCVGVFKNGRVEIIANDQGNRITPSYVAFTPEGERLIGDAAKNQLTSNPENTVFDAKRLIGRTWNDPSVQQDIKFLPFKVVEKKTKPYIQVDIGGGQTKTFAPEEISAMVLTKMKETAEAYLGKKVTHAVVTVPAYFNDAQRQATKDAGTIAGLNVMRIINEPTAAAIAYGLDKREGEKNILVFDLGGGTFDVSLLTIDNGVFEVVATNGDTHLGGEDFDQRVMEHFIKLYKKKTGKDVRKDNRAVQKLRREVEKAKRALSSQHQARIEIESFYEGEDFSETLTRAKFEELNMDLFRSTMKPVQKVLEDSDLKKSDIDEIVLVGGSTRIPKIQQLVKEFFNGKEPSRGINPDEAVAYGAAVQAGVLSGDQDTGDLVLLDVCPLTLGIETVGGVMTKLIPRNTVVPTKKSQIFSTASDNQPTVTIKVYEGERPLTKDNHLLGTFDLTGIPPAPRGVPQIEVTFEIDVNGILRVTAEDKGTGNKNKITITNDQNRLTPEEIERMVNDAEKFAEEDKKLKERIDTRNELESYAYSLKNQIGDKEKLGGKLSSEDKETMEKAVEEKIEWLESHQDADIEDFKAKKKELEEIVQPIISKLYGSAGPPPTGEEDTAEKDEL

stoichiometry N: 2
Substance: human GRP78, P11021 19-654 (natural protein; other documents disagree on this pair)
